Results as given in article PMC4027161 (Nucleic Acids Research, 2014).
Where a chain is given by its changes, count along the chain named.

T1: monomeric form of PCNA2 (PCNA2m, R75A-F111E-R143A) (Thermococcus kodakarensis, UniProt Q5JFD3 1-253, R75A | F111E | R143A)
T1 sequence: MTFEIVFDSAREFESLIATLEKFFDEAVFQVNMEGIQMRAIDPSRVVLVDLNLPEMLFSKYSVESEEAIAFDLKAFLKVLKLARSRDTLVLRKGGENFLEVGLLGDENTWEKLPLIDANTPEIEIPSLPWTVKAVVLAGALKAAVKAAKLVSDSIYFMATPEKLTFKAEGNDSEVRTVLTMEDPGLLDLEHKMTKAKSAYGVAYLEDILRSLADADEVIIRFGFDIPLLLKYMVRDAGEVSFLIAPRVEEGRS

B1: Thermococcus kodakarensis PCNA2 (TK0582) (natural protein)
chain: T1 sequence with A75R, E111F, A143R
B2: Thermococcales inhibitor of PCNA (TIP), encoded by TK0808 (natural protein, Thermococcus kodakarensis, UniProt Q5JH72 1-64, looked up)
chain: MDRKLDEFIGDATPKKVSKEKPVRRKKRLKPTSLDSFLPEEHINYFRDLRIGSKKIRNAKIEEL
B3: Thermococcus kodakarensis PCNA1 (TK0535) (natural protein, UniProt Q5JF32 1-249, looked up)
chain: MPFEVVFDGAKEFADLIATASNLIDEAAFKFTEEGISMRAMDPSRVVLIDLNLPESIFSKYEVEEPETIGINMDQFKKILKRGKAKDTLILRKGDENFLEITFEGTAKRTFRLPLIDVEELELELPELPFTAKVVLLGEVLKEGIKDASLVSDAIKFIAKENEFTMKAEGETNEVEIRLTLEDEGLLDLEVEEETKSAYGIRYLSDMVKGIGKADEVILRFGNEMPLQMEYMIRDEGRLTFLLAPRVEE
B4: Methanothermobacter thermautotrophicus PCNA (mtPCNA) (natural protein, UniProt O27367 1-244, looked up)
chain: MFKAELNDPNILRTSFDAISSIVDEVQIQLSAEGLRLDALDRSHITYVHLELKAELFDEYVCDEPERINVDTEELMKVLKRAKANDRVILSTDEGNLIIQFEGEAVRTFKIRLIDIEYETPSPPEIEYENEFEVPFQLLKDSIADIDIFSDKITFRVDEDRFIASAEGEFGDAQIEYLHGERIDKPARSIYSLDKIKEMLKADKFSETAIINLGDDMPLKLTLKMASKEGELSFLLAPRIEAEE

Tests used:
[1] = molecular target: the molecule itself; assay: SEC; Superdex-200 (HR10/30); 100 ug of each protein in 200 ul of 25 mM Tris-HCl pH 8.0, 200 mM NaCl, 0.5 mM EDTA, 10% glycerol; fractions on SDS-PAGE, Coomassie
[2] = molecular target: B1; assay: HDX-MS; 15 uM protein; PCNA monomer:TIP monomer 1:1, equilibrated at 4 C for 16 h; 20 mM sodium phosphate, 500 mM NaCl, pH 7.6; exchange at 3 C, 30 s to 60 min; pepsin digestion; details: both partners purified
[3] = molecular target: B3; assay: crystal structure; low resolution X-ray structure of the complex, unpublished observation; details: both partners purified
[4] = molecular target: T1, monomeric form of PCNA2 (PCNA2m, …); assay: SEC; Superdex-200 (HR10/30); 100 ug of each protein in 200 ul of 25 mM Tris-HCl pH 8.0, 200 mM NaCl, 0.5 mM EDTA, 10% glycerol; fractions on SDS-PAGE, Coomassie; details: both partners purified

binding result [2] | stoichiometry N [3] [TIP per PCNA monomer] | binding result [4] | Binder | stoichiometry N [1]
 |  |  | B1 | 3
binds | 1 | binds | B2 | 
 |  |  | B3 | 3
 |  |  | B4 | 3
